Results taken from patent US20250250593A1, “METHOD FOR PREPARING ALPHA-BRANCHED BETA'-HYDROXY CARBONYL COMPOUNDS BY ENZYMATIC-CATALYZED REDUCTIVE ALDOL REACTION” (Max-Planck-Gesellschaft zur Förderung der Wissenschaften …, priority 2022, published 2025).
Where a chain is given by its changes, count along the chain named. Numbers in names are those of the source. Where “and” joins values, the source holds several entries; their conditions need not be identical. Identical values can stand only once.

Assays:
[1] = biological target: T1, Kitasatospora setae crotonyl-CoA carboxylase/reductase (KsCcr), wild type (WT), SEQ ID NO: 1 (Kitasatospora setae, UniProt E4N096); assay type: biochemical; details: apparent turnover rate with formaldehyde as electrophile; 100 mM K2HPO4 pH 8.0, 30 °C; mean ± standard error
T1 construct: gene provided by JGI
T1 sequence (E4N096 1-445): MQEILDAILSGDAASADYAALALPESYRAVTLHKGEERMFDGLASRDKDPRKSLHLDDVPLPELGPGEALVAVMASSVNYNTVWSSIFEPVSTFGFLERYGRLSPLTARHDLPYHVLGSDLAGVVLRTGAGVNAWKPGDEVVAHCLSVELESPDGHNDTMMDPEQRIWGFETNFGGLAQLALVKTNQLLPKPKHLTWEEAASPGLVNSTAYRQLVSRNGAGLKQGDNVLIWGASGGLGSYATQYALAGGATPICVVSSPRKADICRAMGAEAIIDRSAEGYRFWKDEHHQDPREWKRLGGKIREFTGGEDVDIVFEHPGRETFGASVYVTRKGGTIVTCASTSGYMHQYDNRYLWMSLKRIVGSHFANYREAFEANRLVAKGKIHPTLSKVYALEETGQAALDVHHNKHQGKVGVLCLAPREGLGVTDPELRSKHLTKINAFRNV
Experimental: (§1) His-tagged KsCcr and its variants were expressed in E. coli BL21 (DE3). Cells in terrific broth were grown at 37° C. to an OD600=0.8-1.0 upon which expression for 12-16 h at 23° C. was induced by the addition of 500 μM IPTG (Isopropyl-D-β-thiogalactopyranoside). Cells were harvested for 15 min at 7500× g at 4° C. then resuspended in 2 mL of buffer A (50 mM Tris, 500 mM NaCl, 1 M L-Proline, pH=7.5) per gram of pellet. The suspension was treated with […] of DNAse I, 5 mM MgCl2, 10 μg/ml of lysozyme and incubated on ice for 20 min upon which cells were lysed using a sonicator. The lysate was clarified at 45000× g at 4° C. for 40 min and then loaded onto a pre-equilibrated 1 mL HisTrap FF column and washed with 15% buffer B (50 mM Tris, 500 mM NaCl, 1 M L-Proline, 500 mM imidazole, pH=7.5) for 20-30 column volumes until the UV 280 nm reached the baseline level. […]
(§2) Formaldehyde stock solution concentration was determined by following the formation of phenylhydrazone at 368 nm (εPhenylhydrazone,368 nm=6.1 mM^−1 cm^−1). […]
(§3) For reactions in which the full conversion to the aldol product was achieved assays were performed on a Cary-60 UV/Vis spectrophotometer (Agilent) at 30° C. using quartz cuvettes (1 mm, 3 mm or 10 mm path length; Hellma). […] Kinetic parameters for one substrate were determined by varying its concentration while the others were kept constant at 10 times their KM value.

[2] = biological target: T2, Kitasatospora setae crotonyl-CoA carboxylase/reductase (KsCcr) variant His365Asn (H365N), SEQ ID NO: 19 (Kitasatospora setae, UniProt E4N096, H365N); assay: Steady-state kinetics of the reductive aldol reaction (crotonyl-CoA + formaldehyde + NADPH); assay type: biochemical
T2 construct: gene provided by JGI
T2 sequence (E4N096 1-445 H365N): T1 sequence (E4N096 1-445) with H365N
Experimental: as §1, §2, §3

CcCcrPAG = assay: Substrate promiscuity screen: enoyl-CoAs with aldehydes, LC-MS; assay type: biochemical, Caulobacter crescentus; details: six enoyl-CoAs with formaldehyde, acetaldehyde, propionaldehyde, benzaldehyde; with Acx4 and catalase
Description: According to phylogenetic and structural analysis, KsCcr belongs to the ECR-1 subfamily of enzymes that are mainly restricted to short-chain enoyl-CoAs. To increase the substrate scope of reductive aldol reactions, the inventors sought to use a more promiscuous enzyme. To that end, a triple variant of Caulobacter crescentus crotonyl-CoA carboxylase/reductase (CcCcrC146P/1169A/F373G, here CcCcrPAG) was employed that had been engineered to accept a variety of enoyl-CoAs, including short- and long-chain, branched, aromatic, bulky and halogenated analogs. Six different enoyl-CoA substrates (FIG. 4) were synthesized and tested in combination with four different aldehydes (formaldehyde, acetaldehyde, propionaldehyde, benzaldehyde) and by LC-MS.
Assays were performed in 100 mM K2HPO4 pH=8.0 at 30° C. and 10 μL samples were taken at different time points and quenched with 1 μL of 50% formic acid. The samples were spinned at 17000 g for 10 min at 4° C. to precipitate the protein and then analyzed by LC-MS.
Determination of CoA esters was performed using a HRES-LC-MS. […]

[3] = tested on: crotonyl-CoA carboxylase/reductase obtained from Caulobacter crescentus (CcCcr); assay: First empirical data on reductive aldol reaction by CcCcr; assay type: biochemical
[4] = substrate: C/C=C/C(=O)SCCNC(=O)CCNC(=O)[C@H](O)C(C)(C)COP(=O)(O)OP(=O)(O)OC[C@H]1O[C@@H](n2cnc3c(N)ncnc32)[C@H](O)[C@@H]1OP(=O)(O)O; assay: cells, lysate or membranes named; assay type: biochemical, Kitasatospora setae; details: other substrates at 10 times KM, mean ± standard error
Experimental: (§4) His-tagged KsCcr and its variants were expressed in E. coli BL21 (DE3). Cells in terrific broth were grown at 37° C. to an OD600=0.8-1.0 upon which expression for 12-16 h at 23° C. was induced by the addition of 500 μM IPTG (Isopropyl-D-β-thiogalactopyranoside). Cells were harvested for 15 min at 7500× g at 4° C. then resuspended in 2 mL of buffer A (50 mM Tris, 500 mM NaCl, 1 M L-Proline, pH=7.5) per gram of pellet. The suspension was treated with 10 mg/mL of DNAse I, 5 mM MgCl2, 10 μg/ml of lysozyme and incubated on ice for 20 min upon which cells were lysed using a sonicator. The lysate was clarified at 45000× g at 4° C. for 40 min and then loaded onto a pre-equilibrated 1 mL HisTrap FF column and washed with 15% buffer B (50 mM Tris, 500 mM NaCl, 1 M L-Proline, 500 mM imidazole, pH=7.5) for 20-30 column volumes until the UV 280 nm reached the baseline level. The protein was eluted by applying 100% buffer B, collected then pooled and desalted into 12.5 mM Tris, 125 mM NaCl, 1 M L-Proline pH=7.5. […] The protein was flash frozen in N2 (I) and stored at −80° C. if not immediately used for assays.
(§5) Assays were performed on a Cary-60 UV/Vis spectrophotometer (Agilent) at 30° C. using quartz cuvettes (10 mm path length; Hellma) contained K2HPO4 pH=8.0 and 3 mM phenylhydrazine.
(§6) For reactions in which the full conversion to the aldol product was achieved assays were performed on a Cary-60 UV/Vis spectrophotometer (Agilent) at 30° C. using quartz cuvettes (1 mm, 3 mm or 10 mm path length; Hellma). Reactions were performed in 100 mM K2HPO4 pH=8.0. Kinetic parameters for one substrate were determined by varying its concentration while the others were kept constant at 10 times their KM value. […] For reactions where both butyryl-CoA and the aldol product where formed the steady state parameters were determined using a discontinuous assay. Reactions of 100 μL volume were performed in 100 mM K2HPO4 pH=8.0 at 30° C. and each concentration was assayed in triplicates. Samples of 20 μL reaction were quenched with 2 μL of 50% formic acid and centrifuged for 10 min at 17′000 g at 4° C. 10 μL of this solution were diluted in 40 μL of 500 mM Tris HCl pH=7 and incubated overnight at room temperature. Samples were analyzed using by HPLC over an Agilent Eclipse Plus C18, 3.5 μm 100 Å, 100×2.1 mm, 4.6×100 mm column using 5% to 30% acetonitrile gradient over 7.5 min with 25 mM ammonium formate pH=8.1 as the aqueous phase.

[5] = substrate: NC(=O)C1=CN([C@@H]2O[C@H](COP(=O)(O)OP(=O)(O)OC[C@H]3O[C@@H](n4cnc5c(N)ncnc54)[C@H](OP(=O)(O)O)[C@@H]3O)[C@@H](O)[C@H]2O)C=CC1; assay: cells, lysate or membranes named; details: other: apparent KM, 100 mM K2HPO4 pH 8.0, 30 °C, other substrates at 10 times KM, mean ± standard error
[6] = substrate: C=O; assay: cells, lysate or membranes named; assay type: biochemical, Kitasatospora setae; details: other: calculated with K = 1000 for the equilibrium between formaldehyde and its methylene diol form, pH 8.0, 30 °C
Experimental: as §4, §5, §6

[7] = substrate: NC(=O)C1=CN([C@@H]2O[C@H](COP(=O)(O)OP(=O)(O)OC[C@H]3O[C@@H](n4cnc5c(N)ncnc54)[C@H](OP(=O)(O)O)[C@@H]3O)[C@@H](O)[C@H]2O)C=CC1; assay: cells, lysate or membranes named; assay type: biochemical, Kitasatospora setae; details: other: 100 mM K2HPO4 pH 8.0, 30 °C, other substrates at 10 times KM, mean ± standard error
Experimental: as §4, §5, §6

[8] = other: apparent KM, 100 mM K2HPO4 pH 8.0, 30 °C
[9] = other: 100 mM K2HPO4 pH 8.0, 30 °C

Chain of crotonyl-CoA carboxylase/reductase obtained from Caulobacter crescentus (CcCcr) (as listed by the source): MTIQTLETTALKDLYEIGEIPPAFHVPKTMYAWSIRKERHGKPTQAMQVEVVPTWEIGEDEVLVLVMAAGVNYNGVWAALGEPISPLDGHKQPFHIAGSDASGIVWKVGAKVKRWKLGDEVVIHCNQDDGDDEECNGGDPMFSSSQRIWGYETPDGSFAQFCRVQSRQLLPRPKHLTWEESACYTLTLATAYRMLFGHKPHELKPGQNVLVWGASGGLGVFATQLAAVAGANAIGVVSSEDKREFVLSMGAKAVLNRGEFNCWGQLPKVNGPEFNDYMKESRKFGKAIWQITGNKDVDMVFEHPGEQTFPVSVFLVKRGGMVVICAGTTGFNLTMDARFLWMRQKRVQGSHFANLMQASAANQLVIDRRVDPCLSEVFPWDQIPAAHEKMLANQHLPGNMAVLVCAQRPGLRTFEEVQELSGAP

## C/C=C/C(=O)SCCNC(=O)CCNC(=O)[C@H](O)C(C)(C)COP(=O)(O)OP(=O)(O)OC[C@H]1O[C@@H](n2cnc3c(N)ncnc32)[C@H](O)[C@@H]1OP(=O)(O)O [Crotonyl-CoA, crotonyl-CoA]
[1]
  Kcat: 30 s⁻¹ and 30 ± 1 s⁻¹

## C=O [formaldehyde]
[2]; decreased to % of the WT enzyme
  apparent catalytic rate relative to WT enzyme: 10%
[2]; fold increase compared to WT
  apparent KM for formaldehyde, increase compared to WT: two-fold

B1: CcCcrPAG: triple variant of Caulobacter crescentus crotonyl-CoA carboxylase/reductase engineered to accept a variety of enoyl-CoAs, SEQ ID NO: 29 (protein)
chain: MTIQTLETTALKDLYEIGEIPPAFHVPKTMYAWSIRKERHGKPTQAMQVEVVPTWEIGEDEVLVLVMAAGVNYNGVWAALGEPISPLDGHKQPFHIAGSDASGIVWKVGAKVKRWKLGDEVVIHPNQDDGDDEECNGGDPMFSSSQRAWGYETPDGSFAQFCRVQSRQLLPRPKHLTWEESACYTLTLATAYRMLFGHKPHELKPGQNVLVWGASGGLGVFATQLAAVAGANAIGVVSSEDKREFVLSMGAKAVLNRGEFNCWGQLPKVNGPEFNDYMKESRKFGKAIWQITGNKDVDMVFEHPGEQTFPVSVFLVKRGGMVVICAGTTGFNLTMDARFLWMRQKRVQGSHGANLMQASAANQLVIDRRVDPCLSEVFPWDQIPAAHEKMLANQHLPGNMAVLVCAQRPGLRTFEEVQELSGAP
modifications: CcCcr C125P/I148A/F352G
CcCcrPAG
  conversion of enoyl-CoAs to aldol products: catalyzed conversion of all the tested enoyl-CoAs

B2: CcCcr: wild type crotonyl-CoA carboxylase/reductase obtained from Caulobacter crescentus, SEQ ID NO: 2 (protein)
chain: B1 chain with P125C, A148I, G352F
modifications: Caulobacter crescentus CcCCR crotonyl-CoA carboxylase/reductase
[3]
  ability to catalyze a reductive aldol reaction: able to catalyze a reductive aldol reaction

B3: Kitasatospora setae crotonyl-CoA carboxylase/reductase (KsCcr), wild type (WT), SEQ ID NO: 1 (Kitasatospora setae KM-6054) (protein)
chain: T1 sequence (E4N096 1-445)
notes: gene provided by JGI
[4]; [8]
  Km: 33 ± 4 µM
  kcat: 30 ± 1 s⁻¹
[5]
  Km: 389 ± 49 µM

B4: Kitasatospora setae crotonyl-CoA carboxylase/reductase (KsCcr) variant His365Asn (H365N), SEQ ID NO: 19 (Kitasatospora setae KM-6054; H365N) (protein)
chain: T1 sequence (E4N096 1-445) with H365N
notes: gene provided by JGI
[4]; [9]
  Km: 69 ± 17 µM
  kcat: 3.1 ± 0.2 s⁻¹
[6]
  Km: 66 ± 23 µM
  kcat: 3.1 ± 0.2 s⁻¹
[7]
  Km: 16 ± 7 µM
